Measurements reported in PMC4931470.

Experiments:
E22P-Aβ42 = assay: SEC; Superdex75 10/300GL, PBS pH 7.4, 0.6 mL/min; Aβ solution 25 μM incubated at 37 °C for the indicated duration, supernatant after centrifugation (17,860 x g, 4 °C, 10 min) analysed; dextran standards
E22P-Aβ42 dimer = assay: as above

Substance	stoichiometry N (E22P-Aβ42)	stoichiometry N (E22P-Aβ42 dimer)
E22P-Aβ42 (peptide)	6 to 8	–
E22P-Aβ42 dimer (peptide)	–	6 to 8
